Data from patent US20190135928A1 (Bristol-Myers Squibb, published 2019).

Experiments:
Assay in all cases: cell-based or functional assay
human TL1A (in-house) [1] = biological target: T1, human TL1A (in-house) (human, UniProt O95150 57-251, limits assumed)
T1 sequence: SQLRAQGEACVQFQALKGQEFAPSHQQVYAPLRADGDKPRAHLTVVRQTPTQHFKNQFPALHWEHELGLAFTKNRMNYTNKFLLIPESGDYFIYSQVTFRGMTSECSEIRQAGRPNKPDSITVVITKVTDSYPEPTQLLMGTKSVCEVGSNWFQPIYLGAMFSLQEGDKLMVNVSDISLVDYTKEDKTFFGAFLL

human TL1A (in-house) [2] = biological target: T1, human TL1A (in-house); remark: listed apart in the source
human TL1A (in-house) [3] = biological target: T1, human TL1A (in-house); remark: listed apart in the source
human TL1A (in-house) [4] = biological target: T1, human TL1A (in-house); remark: listed apart in the source
[5] = biological target: T2, cynomolgus TL1A (in-house) (cynomolgus monkey, UniProt G7PRK8 57-251)
T2 sequence: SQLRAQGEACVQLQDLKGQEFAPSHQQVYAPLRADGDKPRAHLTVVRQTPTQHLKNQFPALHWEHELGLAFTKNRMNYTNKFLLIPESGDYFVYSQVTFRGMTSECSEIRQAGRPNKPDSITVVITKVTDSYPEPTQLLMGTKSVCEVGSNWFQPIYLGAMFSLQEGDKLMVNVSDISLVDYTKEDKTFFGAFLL

human TL1A (in-house) [6] = biological target: T1, human TL1A (in-house); remark: listed apart in the source
[7] = biological target: T3, TL1A expressed on transfected CHO cells (Homo sapiens (Human), UniProt O95150 1-251)
T3 sequence: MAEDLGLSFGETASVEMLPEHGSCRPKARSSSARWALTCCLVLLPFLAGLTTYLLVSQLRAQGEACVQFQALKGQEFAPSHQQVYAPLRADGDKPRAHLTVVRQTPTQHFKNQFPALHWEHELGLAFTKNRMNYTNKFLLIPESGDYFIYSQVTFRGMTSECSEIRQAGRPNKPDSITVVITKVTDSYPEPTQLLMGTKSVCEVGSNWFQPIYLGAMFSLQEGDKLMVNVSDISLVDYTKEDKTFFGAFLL

B1: TL1A antibody 10A4.F7.2E8 huIgG4 (antibody, V domains shown)
VH: QLQLQESGPGLVKPSETLSLTCTVSGGSISSRSYYWGWIRQPPGKGLEWIGSIYYNGRTYYNPSLKSRVTISVDTSKNQFSLKLSSVTAADTAVYYCAREDYGDYGAFDIWGQGTMVTVSS
VL: AIQLTQSPSSLSASVGDRVTITCRASQGISSALAWYQQKPGKAPKLLIYDASSLESGVPSRFSGSGSGTDFTLTISSLQPEDFATYYCQQFNSYPLTFGGGTKVEIKR
EC50, TL1A-driven phospho-NFkB in Hu Whole Blood(2.45 mg/ml), CD4+ T-cells, Donor A, ELN ref A010F-003 (human TL1A (in-house) [1]): 2640 pM | EC50, TL1A-driven phospho-NFkB in Hu Whole Blood(2.45 mg/ml), CD4+ T-cells, Donor A, ELN ref A010F-007 (human TL1A (in-house) [1]): 770 pM | EC50, TL1A-driven phospho-NFkB in Hu Whole Blood(2.45 mg/ml), CD4+ T-cells, Donor B, ELN ref A010F-003 (human TL1A (in-house) [1]): 2940 pM | EC50, TL1A-driven phospho-NFkB in Hu Whole Blood(2.45 mg/ml), CD4+ T-cells, Donor B, ELN ref A010F-007 (human TL1A (in-house) [1]): 3240 pM | EC50, TL1A-driven phospho-NFkB in Hu Whole Blood(2.45 mg/ml), CD8+ T-cells, Donor A, no ELN ref printed in this row (human TL1A (in-house) [1]): 850 pM | EC50, TL1A + IL-12 + IL-18 driven IFNg (Hu NKcells)(2.45 mg/ml), Donor A, ELN ref 97305-070 (human TL1A (in-house) [2]): 160 pM | EC50, TL1A + IL-12 + IL-18 driven IFNg (Hu NKcells)(2.45 mg/ml), Donor A, ELN ref 97305-075 (human TL1A (in-house) [2]): 147 pM | EC50, TL1A + IL-12 + IL-18 driven IFNg (Hu NKcells)(2.45 mg/ml), Donor B, ELN ref 97305-070 (human TL1A (in-house) [2]): 253 pM | EC50, TL1A + IL-12 + IL-18 driven IFNg (Hu NKcells)(2.45 mg/ml), Donor B, ELN ref 97305-075 (human TL1A (in-house) [2]): 162 pM | EC50, TL1A + IL-12 + IL-18 driven IFNg (Hu PBMCs) (5.9 mg/ml), Donor A, ELN ref 99932-005481 (human TL1A (in-house) [3]): 295 pM | EC50, TL1A + IL-12 + IL-18 driven IFNg (Hu PBMCs) (5.9 mg/ml), Donor B, ELN ref 99932-005481 (human TL1A (in-house) [3]): 241 pM | EC50, TL1A + IL-12 + IL-18 driven IFNg (Hu PBMCs) (2.45 mg/ml), Donor A, ELN ref 97305-032 (human TL1A (in-house) [4]): 131 pM | EC50, TL1A + IL-12 + IL-18 driven IFNg (Hu PBMCs) (2.45 mg/ml), Donor A, ELN ref 97305-037 (human TL1A (in-house) [4]): 138 pM | EC50, TL1A + IL-12 + IL-18 driven IFNg (Hu PBMCs) (2.45 mg/ml), Donor A, ELN ref 97305-040 (human TL1A (in-house) [4]): 167 pM | EC50, TL1A + IL-12 + IL-18 driven IFNg (Hu PBMCs) (2.45 mg/ml), Donor A, ELN ref 97305-041 (human TL1A (in-house) [4]): 209 pM | EC50, TL1A + IL-12 + IL-18 driven IFNg (Hu PBMCs) (2.45 mg/ml), Donor A, ELN ref 97305-044 (human TL1A (in-house) [4]): 272 pM | EC50, TL1A + IL-12 + IL-18 driven IFNg (Hu PBMCs) (2.45 mg/ml), Donor A, ELN ref 97305-047 (human TL1A (in-house) [4]): 95 pM | EC50, TL1A + IL-12 + IL-18 driven IFNg (Hu PBMCs) (2.45 mg/ml), Donor A, ELN ref 97305-050 (human TL1A (in-house) [4]): 209 pM | EC50, TL1A + IL-12 + IL-18 driven IFNg (Hu PBMCs) (2.45 mg/ml), Donor A, ELN ref 97305-061 (human TL1A (in-house) [4]): 260 pM | EC50, TL1A + IL-12 + IL-18 driven IFNg (Hu PBMCs) (2.45 mg/ml), Donor A, ELN ref 99932-005481 (human TL1A (in-house) [4]): 301 pM | EC50, TL1A + IL-12 + IL-18 driven IFNg (Hu PBMCs) (2.45 mg/ml), Donor B, ELN ref 97305-032 (human TL1A (in-house) [4]): 197 pM | EC50, TL1A + IL-12 + IL-18 driven IFNg (Hu PBMCs) (2.45 mg/ml), Donor B, ELN ref 97305-037 (human TL1A (in-house) [4]): 289 pM | EC50, TL1A + IL-12 + IL-18 driven IFNg (Hu PBMCs) (2.45 mg/ml), Donor B, ELN ref 97305-040 (human TL1A (in-house) [4]): 146 pM | EC50, TL1A + IL-12 + IL-18 driven IFNg (Hu PBMCs) (2.45 mg/ml), Donor B, ELN ref 97305-041 (human TL1A (in-house) [4]): 283 pM | EC50, TL1A + IL-12 + IL-18 driven IFNg (Hu PBMCs) (2.45 mg/ml), Donor B, ELN ref 97305-044 (human TL1A (in-house) [4]): 211 pM | EC50, TL1A + IL-12 + IL-18 driven IFNg (Hu PBMCs) (2.45 mg/ml), Donor B, ELN ref 97305-047 (human TL1A (in-house) [4]): 185 pM | EC50, TL1A + IL-12 + IL-18 driven IFNg (Hu PBMCs) (2.45 mg/ml), Donor B, ELN ref 97305-050 (human TL1A (in-house) [4]): 163 pM | EC50, TL1A + IL-12 + IL-18 driven IFNg (Hu PBMCs) (2.45 mg/ml), Donor B, ELN ref 97305-061 (human TL1A (in-house) [4]): 152 pM | EC50, TL1A + IL-12 + IL-18 driven IFNg (Hu PBMCs) (2.45 mg/ml), Donor B, ELN ref 99932-005481 (human TL1A (in-house) [4]): 196 pM | EC50, TL1A + IL-12 + IL-18 driven IFNg (Cyno PBMCs)(2.45 mg/ml), Donor A, ELN ref 97305-067 [5]: 122 pM | EC50, TL1A + IL-12 + IL-18 driven IFNg (Cyno PBMCs)(2.45 mg/ml), Donor A, ELN ref 97305-071 [5]: 154 pM | EC50, TL1A + IL-12 + IL-18 driven IFNg (Cyno PBMCs)(2.45 mg/ml), Donor A, ELN ref 97305-074 [5]: 105 pM | EC50, TL1A + IL-12 + IL-18 driven IFNg (Cyno PBMCs)(2.45 mg/ml), Donor A, ELN ref 97305-076 [5]: 97 pM | EC50, TL1A + IL-12 + IL-18 driven IFNg (Cyno PBMCs)(2.45 mg/ml), Donor B, ELN ref 97305-067 [5]: 164 pM | EC50, TL1A + IL-12 + IL-18 driven IFNg (Cyno PBMCs)(2.45 mg/ml), Donor B, ELN ref 97305-071 [5]: 133 pM | EC50, TL1A + IL-12 + IL-18 driven IFNg (Cyno PBMCs)(2.45 mg/ml), Donor B, ELN ref 97305-074 [5]: 129 pM | EC50, TL1A + IL-12 + IL-18 driven IFNg (Cyno PBMCs)(2.45 mg/ml), Donor B, ELN ref 97305-076 [5]: 93 pM | EC50, TL1A + IL-12 + IL-18 driven IFNg (Hu WB)(2.45 mg/ml), Donor A, ELN ref 97305-029 (human TL1A (in-house) [6]): 320 pM | EC50, TL1A + IL-12 + IL-18 driven IFNg (Hu WB)(2.45 mg/ml), Donor A, ELN ref 97305-033 (human TL1A (in-house) [6]): 284 pM | EC50, TL1A + IL-12 + IL-18 driven IFNg (Hu WB)(2.45 mg/ml), Donor B, ELN ref 97305-029 (human TL1A (in-house) [6]): 540 pM | EC50, TL1A + IL-12 + IL-18 driven IFNg (Hu WB)(2.45 mg/ml), Donor B, ELN ref 97305-033 (human TL1A (in-house) [6]): 108 pM | EC50, TL1A-expressing CHO cells + IL-12 + IL-18 driven IFNg (Hu PBMCs)(2.45 mg/ml), Donor A, ELN ref 97305-034 [7]: 234 pM | EC50, TL1A-expressing CHO cells + IL-12 + IL-18 driven IFNg (Hu PBMCs)(2.45 mg/ml), Donor B, ELN ref 97305-034 [7]: 214 pM
